Square brackets hold non-standard residues; d marks the D form. Ends that are not written are not given here. * marks the point of attachment. Biotin = O=C1N[C@H]2[C@H](CS[C@H]2CCCCC(=O)*)N1; pY = N[C@@H](Cc1ccc(OP(=O)(O)O)cc1)C(=O)O; Ahx = NCCCCCC(=O)O
How the values were obtained:
[1] = target: fluorescein-ahx-ahx-EPQpYEEIPIYL; test: fluorescence polarisation
[2] = target: biotin-ahx-ahx-EPQpYEEIPIYL; test: BLI
[3] = target: fluorescein-ahx-ahx-GGpYGG; test: fluorescence polarisation
[4] = target: Fyn SH2 variant V13 (T3S/T4R/S6A/K8L), His-tag protein (human); test: ELISA
[5] = target: Fyn SH2 variant V24 (T3S/T4S/S6A/K8L), His-tag protein (human); test: ELISA
[6] = target: Fyn SH2 variant V17 (T4N/A5S/K8L), His-tag protein (human); test: ELISA
[7] = target: 9 of the 22 variants that have the K8L mutation (His-tag proteins); test: ELISA
[8] = target: Fyn SH2 variant V3 (T3S/T4W/A5G), His-tag protein (human); test: ELISA
[9] = target: Fyn SH2 triple mutant superbinder (T4V/S6A/K8L), His-tag protein (human); test: ELISA
[10] = target: Fyn SH2 variant V10 (T4V/K8L), His-tag protein (human); test: ELISA

With “wild type human Fyn SH2 domain (Cys-less), His-tag protein (from UniProt P06241 149-246) (domain or fragment)” the Kd [1] was 327 nM, the Kd [2] was 154 nM and the koff [2] was 0.01 s⁻¹. For the same molecule, the kon [2] was 64800 M⁻¹ s⁻¹.

“Fyn SH2 variant V17 (T4N/A5S/K8L), His-tag protein (designed binder)” was tested, and the Kd [1] was under 40 nM, the fold affinity increase over the wild type Fyn SH2 domain [1] was 4 fold and the fold weaker than the triple mutant [1] was 4 fold.

For “Fyn SH2 variant V10 (T4V/K8L), His-tag protein (designed binder)”, the Kd [3] was 2700 nM and the Kd [1] was 32 nM.

“Fyn SH2 variant V24 (T3S/T4S/S6A/K8L), His-tag protein (designed binder)” was tested, and the Kd [3] was 2570 nM and the Kd [1] was 23 nM.

“Fyn SH2 variant V13 (T3S/T4R/S6A/K8L), His-tag protein (designed binder)” showed a Kd [3] of 620 nM and a Kd [1] of 12 nM.

“Fyn SH2 variant V3 (T3S/T4W/A5G), His-tag protein (designed binder)” was tested, and the Kd [3] was 1630 nM, the Kd [1] was 38 nM and the Kd [2] was 55 nM. The koff [2] was 0.000463 s⁻¹.

Molecule “Fyn SH2 triple mutant superbinder (T4V/S6A/K8L), His-tag protein (designed binder)” has a Kd [3] of 680 nM, a Kd [1] of 20 nM and a Kd [2] of 55 nM. For the same molecule, the koff [2] was 0.000888 s⁻¹ and the kon [2] was 16300 M⁻¹ s⁻¹.

{Biotin-Ahx-Ahx}-EPQ[pY]EEIPIYL [biotin-ahx-ahx-EPQpYEEIPIYL] showed an EC50 [4] of under 200 nM, an EC50 [5] of under 200 nM and an EC50 [6] of under 200 nM. The EC50 [7] was 21 to 500 nM, the EC50 [8] was 15 nM and the EC50 [9] was 21 nM. It also gave an EC50 [10] of 175 nM.

Reference: paper doi:10.1101/2020.10.30.361790
